These are literature values, as cited in paper PMC5904127.

The target of the data set is apocalmodulin (UniProt P0DP23).

As a reminder, the Kd is the concentration at which binding is half-saturated. Take “neuromodulin IQ domain (from UniProt P17677)”: the equilibrium dissociation constant (Kd) was 2000 nM.
